In the supplement of paper PMC9428881:
± gives the standard error.

Experiment: background-corrected fluorescence of 3'-dye-labeled ssDNA relative to brightest sequence (3'-GCGCG) (fraction); higher = brighter dye fluorescence (less quenching)
Experimental: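 Single-stranded DNA is synthesized in situ on glass microarrays by 5'->3' photolithographic synthesis, with a Cy3 or Cy5 phosphoramidite coupled at the 3' end next to all 1024 permuted pentamers P1-P5. The construct is 5'-T5-(ACGT minus P5..P1 trinucleotides)-T15-P5P4P3P2P1-dye-3'; the dye is a 3' terminal modification, not part of the sequence. Arrays were scanned at 532 nm (Cy3) or 635 nm (Cy5), background from unlabeled oligos was subtracted, and values are averaged over 10 replicate features per array and at least 3 independent syntheses.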

| Sequence | background-corrected fluorescence (dye: Cy3 (3' terminal)) | background-corrected fluorescence (dye: Cy5 (3' terminal)) |
| --- | --- | --- |
| TTTTTTCATGCTGATCAGCATTTTTTTTTTTTTTTGACGT [TGCAG] | 0.601 ± 0.016 | 0.474 ± 0.028 |
| TTTTTTCAGCATGCGCAGCATTTTTTTTTTTTTTTGTATT [TTATG] | 0.5 ± 0.07 | 0.375 ± 0.03 |
| TTTTTTGCTGCTGATGCTGCTTTTTTTTTTTTTTTAACAA | 0.527 ± 0.024 | 0.419 ± 0.024 |
| TTTTTTCATCATGAGCATCATTTTTTTTTTTTTTTGGCTG [GTCGG] | 0.469 ± 0.016 | 0.364 ± 0.018 |
| TTTTTGCAGCATGATGATCATTTTTTTTTTTTTTTTTCCG [GCCTT] | 0.488 ± 0.011 | 0.366 ± 0.035 |
| TTTTTGCATCAGCATGAGCATTTTTTTTTTTTTTTTGTCT [TCTGT] | 0.48 ± 0.021 | 0.367 ± 0.028 |
| TTTTTTGCTGCTGCTGATGCTTTTTTTTTTTTTTTAAACA [ACAAA] | 0.51 ± 0.039 | 0.407 ± 0.023 |
| TTTTTTGCTGCTGCTGCTCATTTTTTTTTTTTTTTAAAAG [GAAAA] | 0.576 ± 0.021 | 0.403 ± 0.03 |
| TTTTTGCATGATGAGCATGCTTTTTTTTTTTTTTTTCCTA [ATCCT] | 0.455 ± 0.019 | 0.355 ± 0.019 |
| TTTTTTCATGCTGCGCAGCATTTTTTTTTTTTTTTGAATT [TTAAG] | 0.5465 ± 0.0052 | 0.382 ± 0.03 |
| TTTTTTGATCAGCAGCATGATTTTTTTTTTTTTTTCGTTC [CTTGC] | 0.417 ± 0.036 | 0.321 ± 0.028 |
| TTTTTTCAGCATCATGAGCATTTTTTTTTTTTTTTGTGCT [TCGTG] | 0.504 ± 0.024 | 0.414 ± 0.05 |
| TTTTTGCAGCAGCATCAGCATTTTTTTTTTTTTTTTTTGT [TGTTT] | 0.649 ± 0.02 | 0.46 ± 0.028 |
| TTTTTTGCTGCTGCGCATGATTTTTTTTTTTTTTTAAATC [CTAAA] | 0.439 ± 0.019 | 0.306 ± 0.019 |
| TTTTTTGATGATGCGCATGATTTTTTTTTTTTTTTCCATC [CTACC] | 0.387 ± 0.081 | 0.281 ± 0.02 |
| TTTTTTGCTGATGATGATGATTTTTTTTTTTTTTTACCCC [CCCCA] | 0.358 ± 0.016 | 0.271 ± 0.027 |
| TTTTTTGCGCATGCTCAGCATTTTTTTTTTTTTTTATAGT [TGATA] | 0.587 ± 0.029 | 0.482 ± 0.041 |
| TTTTTTGCTCATGCTCATCATTTTTTTTTTTTTTTAGAGG [GGAGA] | 0.645 ± 0.037 | 0.525 ± 0.055 |
| TTTTTTGCTGCTGATCAGCATTTTTTTTTTTTTTTAACGT [TGCAA] | 0.606 ± 0.023 | 0.45 ± 0.025 |
| TTTTTTGAGCAGCAGCATGATTTTTTTTTTTTTTTCTTTC | 0.389 ± 0.014 | 0.297 ± 0.05 |
| TTTTTGCAGCATGATCATGCTTTTTTTTTTTTTTTTTCGA [AGCTT] | 0.645 ± 0.025 | 0.533 ± 0.067 |
| TTTTTTGCGCATCAGCATGATTTTTTTTTTTTTTTATGTC [CTGTA] | 0.454 ± 0.021 | 0.351 ± 0.046 |

| Sequence | background-corrected fluorescence (dye: Cy3 (3' terminal)) | background-corrected fluorescence (dye: Cy5 (3' terminal)) |
| --- | --- | --- |
| TTTTTTGATCATCAGCATGATTTTTTTTTTTTTTTCGGTC [CTGGC] | 0.506 ± 0.035 | 0.407 ± 0.042 |
| TTTTTTGCTGAGCATCATCATTTTTTTTTTTTTTTACTGG [GGTCA] | 0.623 ± 0.022 | 0.481 ± 0.023 |
| TTTTTTCAGCATCATCAGCATTTTTTTTTTTTTTTGTGGT [TGGTG] | 0.659 ± 0.02 | 0.544 ± 0.031 |
| TTTTTTGATGATCATCATGATTTTTTTTTTTTTTTCCGGC [CGGCC] | 0.623 ± 0.025 | 0.511 ± 0.041 |
| TTTTTGCAGCATGATGATGATTTTTTTTTTTTTTTTTCCC [CCCTT] | 0.35 ± 0.0099 | 0.266 ± 0.016 |
| TTTTTGCATGATCAGCATGATTTTTTTTTTTTTTTTCGTC [CTGCT] | 0.467 ± 0.034 | 0.352 ± 0.03 |
| TTTTTTGAGCATGCTCAGCATTTTTTTTTTTTTTTCTAGT [TGATC] | 0.612 ± 0.019 | 0.451 ± 0.029 |
| TTTTTTGCTGATCATGCTGATTTTTTTTTTTTTTTACGAC [CAGCA] | 0.486 ± 0.025 | 0.38 ± 0.035 |
| TTTTTGCATGCGCATGATGATTTTTTTTTTTTTTTTATCC [CCTAT] | 0.384 ± 0.024 | 0.285 ± 0.019 |
| TTTTTTGCTCATGCTCATGATTTTTTTTTTTTTTTAGAGC [CGAGA] | 0.565 ± 0.022 | 0.435 ± 0.046 |
| TTTTTTGATGCTGCTCATGCTTTTTTTTTTTTTTTCAAGA [AGAAC] | 0.683 ± 0.036 | 0.543 ± 0.026 |
| TTTTTTGCTGCTGCGCATCATTTTTTTTTTTTTTTAAATG [GTAAA] | 0.499 ± 0.015 | 0.375 ± 0.035 |
| TTTTTGCATCATCAGCAGCATTTTTTTTTTTTTTTTGGTT | 0.624 ± 0.019 | 0.477 ± 0.037 |
| TTTTTTGCTGCTCATGATCATTTTTTTTTTTTTTTAAGCG [GCGAA] | 0.632 ± 0.033 | 0.513 ± 0.033 |
| TTTTTTGATGATCATGATGATTTTTTTTTTTTTTTCCGCC | 0.445 ± 0.024 | 0.33 ± 0.022 |
| TTTTTTGAGCAGCATGCTCATTTTTTTTTTTTTTTCTTAG [GATTC] | 0.528 ± 0.014 | 0.395 ± 0.039 |
| TTTTTTGCGCATGCTGCTGATTTTTTTTTTTTTTTATAAC [CAATA] | 0.434 ± 0.032 | 0.327 ± 0.023 |
| TTTTTTGCGCATGATGCGCATTTTTTTTTTTTTTTATCAT [TACTA] | 0.511 ± 0.02 | 0.408 ± 0.028 |
| TTTTTTCATCAGCAGCATCATTTTTTTTTTTTTTTGGTTG [GTTGG] | 0.524 ± 0.02 | 0.392 ± 0.022 |
| TTTTTTCAGCAGCATGCTGCTTTTTTTTTTTTTTTGTTAA [AATTG] | 0.57 ± 0.032 | 0.446 ± 0.027 |
| TTTTTTCAGCAGCATGCTGATTTTTTTTTTTTTTTGTTAC [CATTG] | 0.447 ± 0.024 | 0.338 ± 0.055 |
| TTTTTTGCTGCGCAGCATGATTTTTTTTTTTTTTTAATTC [CTTAA] | 0.419 ± 0.015 | 0.297 ± 0.018 |

| Sequence | background-corrected fluorescence (dye: Cy3 (3' terminal)) | background-corrected fluorescence (dye: Cy5 (3' terminal)) |
| --- | --- | --- |
| TTTTTTGCGCATGCTCATGCTTTTTTTTTTTTTTTATAGA [AGATA] | 0.602 ± 0.037 | 0.489 ± 0.045 |
| TTTTTTGCTGCTGCTGAGCATTTTTTTTTTTTTTTAAACT [TCAAA] | 0.496 ± 0.0053 | 0.349 ± 0.028 |
| TTTTTTGATGATGATGATCATTTTTTTTTTTTTTTCCCCG [GCCCC] | 0.471 ± 0.035 | 0.377 ± 0.026 |
| TTTTTTGCTGCTCATGCTGCTTTTTTTTTTTTTTTAAGAA | 0.619 ± 0.015 | 0.481 ± 0.022 |
| TTTTTGCAGCATCAGCATCATTTTTTTTTTTTTTTTTGTG [GTGTT] | 0.524 ± 0.031 | 0.397 ± 0.019 |
| TTTTTTGATGATGCTCATGATTTTTTTTTTTTTTTCCAGC [CGACC] | 0.503 ± 0.036 | 0.395 ± 0.02 |
| TTTTTGCATGCTGCTGATCATTTTTTTTTTTTTTTTAACG [GCAAT] | 0.51 ± 0.034 | 0.426 ± 0.037 |
| TTTTTGCATCAGCAGCAGCATTTTTTTTTTTTTTTTGTTT | 0.511 ± 0.028 | 0.396 ± 0.06 |
| TTTTTTCAGCATCATGATGATTTTTTTTTTTTTTTGTGCC [CCGTG] | 0.438 ± 0.022 | 0.332 ± 0.028 |
| TTTTTTGCTGCTGCTGATCATTTTTTTTTTTTTTTAAACG [GCAAA] | 0.559 ± 0.023 | 0.426 ± 0.028 |
| TTTTTTGATGCGCATGCTGCTTTTTTTTTTTTTTTCATAA [AATAC] | 0.529 ± 0.021 | 0.428 ± 0.022 |
| TTTTTTGCTGCTGAGCATCATTTTTTTTTTTTTTTAACTG [GTCAA] | 0.547 ± 0.024 | 0.381 ± 0.029 |
| TTTTTTGCTGATCAGCAGCATTTTTTTTTTTTTTTACGTT [TTGCA] | 0.552 ± 0.018 | 0.433 ± 0.029 |
| TTTTTTGCTGAGCATCATGATTTTTTTTTTTTTTTACTGC [CGTCA] | 0.491 ± 0.033 | 0.365 ± 0.028 |
| TTTTTTGCTCATGCTCATGCTTTTTTTTTTTTTTTAGAGA | 0.633 ± 0.031 | 0.519 ± 0.029 |
| TTTTTGCAGCATGATGAGCATTTTTTTTTTTTTTTTTCCT [TCCTT] | 0.444 ± 0.021 | 0.325 ± 0.036 |
| TTTTTTCATGCTGATGATGATTTTTTTTTTTTTTTGACCC [CCCAG] | 0.387 ± 0.0053 | 0.282 ± 0.022 |
| TTTTTGCATGCTGAGCAGCATTTTTTTTTTTTTTTTACTT [TTCAT] | 0.504 ± 0.046 | 0.358 ± 0.039 |
| TTTTTTGCTGATCATGCTCATTTTTTTTTTTTTTTACGAG [GAGCA] | 0.62 ± 0.017 | 0.507 ± 0.078 |
| TTTTTTCATGATGATGAGCATTTTTTTTTTTTTTTGCCCT [TCCCG] | 0.449 ± 0.021 | 0.329 ± 0.019 |
| TTTTTTCAGCATGCTCAGCATTTTTTTTTTTTTTTGTAGT [TGATG] | 0.575 ± 0.0066 | 0.459 ± 0.032 |
| TTTTTTCATGCGCATGCTGCTTTTTTTTTTTTTTTGATAA [AATAG] | 0.587 ± 0.042 | 0.452 ± 0.031 |
